Experimental data as given in paper PMC10241913 (Nature Communications, 2023).
Blank lines part the entries; values can stand above or below the binder they belong to. No end group written: not given here.

Assays:
Settings in all cases: both partners purified
[1] = target: T1, UBXD1 (1–441), recombinant, purified (human, UniProt Q9BZV1 1-441); assay: fluorescence polarisation; direct anisotropy titration of 5,6-FAM-p97-C10 peptide (0.1 µM in the displacement set-up) with UBXD1
T1 construct: also called UBXD1-wt; UBXD1-fl; not shown: GST, N-terminal, cleaved
T1 sequence (looked up): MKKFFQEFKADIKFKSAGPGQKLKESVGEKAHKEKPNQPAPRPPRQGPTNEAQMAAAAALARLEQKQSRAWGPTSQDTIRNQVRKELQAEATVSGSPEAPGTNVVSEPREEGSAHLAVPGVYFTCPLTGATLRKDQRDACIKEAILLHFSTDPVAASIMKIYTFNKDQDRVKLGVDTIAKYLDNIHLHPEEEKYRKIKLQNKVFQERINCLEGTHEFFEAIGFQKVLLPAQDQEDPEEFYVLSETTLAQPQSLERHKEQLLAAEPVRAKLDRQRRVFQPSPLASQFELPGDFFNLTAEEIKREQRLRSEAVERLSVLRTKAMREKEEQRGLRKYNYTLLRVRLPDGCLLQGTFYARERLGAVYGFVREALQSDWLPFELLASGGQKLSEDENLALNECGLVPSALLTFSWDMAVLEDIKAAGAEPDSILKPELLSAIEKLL

[2] = target: T2, ubiquitin-GST fusion protein (Ub-GST) (UniProt P0CG48 1-76); assay: pull-down; 50 μM ubiquitin-GST, 2.5 μM p97 (hexamer) and 5 μM UBXD1 variant with GSH beads, 30 min, 4 °C, 50 mM Tris pH 7.4, 150 mM KCl, 1% Triton-X-100
T2 construct: source: E. coli BL21 DE3 (T1r), purified

UBXD1-PUB (150-264) = target: T3, UBXD1-PUB (150-264) (human, UniProt Q9BZV1 150-264); assay: NMR titration; 1H-15N-HSQC of 15N-HR23b-UBL (200 µM), UBXD1-PUB added stepwise to 400 µM; 50 mM sodium potassium phosphate, pH 7.5, 25 °C
T3 construct: UBXD1 (UBXN6), human, PUB domain, residues 150-264; also called His6-UBXD1-PUB; source: E. coli Rosetta2, purified (Ni-NTA, thrombin cleavage, SEC); unlabelled or 15N-labelled; not shown: His6, N-terminal, cleaved
T3 sequence (looked up): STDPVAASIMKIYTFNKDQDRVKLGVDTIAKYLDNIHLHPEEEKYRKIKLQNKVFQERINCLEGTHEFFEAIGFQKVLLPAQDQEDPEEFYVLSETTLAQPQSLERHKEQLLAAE

p97 wild type (1-806) = target: T4, p97 wild type (1-806) (UniProt P55072 1-806); assay: fluorescence polarisation; fluorescence anisotropy titration of Atto594-labelled UBXD1 construct with p97 construct; 50 mM NaKPi buffer, pH 7.5, 25 °C; fitted with the stoichiometry 1:1
T4 construct: p97/VCP, residues 1-806; also called p97-wt; p97-fl; source: E. coli BL21 DE3 (T1r), purified (Ni-NTA, anion exchange)

UBXD1-PUB (150–264) = target: T5, UBXD1-PUB (150–264) (human, UniProt Q9BZV1 150-264); assay: NMR titration; 1H-15N-HSQC: 15N-UBXD1-PUB (400 µM) with HR23b-UBL (0 to 1300 µM), and the reverse titration of 15N-HR23b-UBL with UBXD1-PUB; 25 °C
T5 construct: UBXD1 (UBXN6), human, PUB domain, residues 150-264; 15N-labelled for some NMR titrations; also called isolated PUB domain; His-UBXD1-PUB; source: E. coli Rosetta2, purified (Ni-NTA, thrombin cleavage, SEC); not shown: His6, N-terminal, cleaved
T5 sequence (looked up): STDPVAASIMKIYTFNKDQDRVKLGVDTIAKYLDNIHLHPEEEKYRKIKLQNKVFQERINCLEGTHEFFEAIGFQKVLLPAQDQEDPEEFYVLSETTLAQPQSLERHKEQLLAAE

p97-N (1–199) = target: T6, p97-N (1–199) (UniProt P55072 1-199); assay: fluorescence polarisation; fluorescence anisotropy; Atto594-labeled UBXD1 proteins, p97 constructs titrated; 50 mM NaKPi pH 7.5, 25 °C; all fitted with stoichiometry n = 1
T6 construct: p97/VCP, N-domain, residues 1-199; also called N-domain of p97; source: E. coli BL21 DE3 (T1r) (pET28a), purified

UBXD1-wt (1-441) = target: T7, UBXD1-wt (1-441) (human, UniProt Q9BZV1 1-441); assay: fluorescence polarisation; displacement titration: UBXD1 incubated with 0.1 µM 5,6-FAM-p97-C10 peptide to 50% saturation, concentration of p97 successively increased; competitive binding model; 50 mM NaKPi buffer, pH 7.5, 25 °C
T7 construct: also called UBXD1-fl; UBXN6; not shown: GST, N-terminal, cleaved
T7 sequence (looked up): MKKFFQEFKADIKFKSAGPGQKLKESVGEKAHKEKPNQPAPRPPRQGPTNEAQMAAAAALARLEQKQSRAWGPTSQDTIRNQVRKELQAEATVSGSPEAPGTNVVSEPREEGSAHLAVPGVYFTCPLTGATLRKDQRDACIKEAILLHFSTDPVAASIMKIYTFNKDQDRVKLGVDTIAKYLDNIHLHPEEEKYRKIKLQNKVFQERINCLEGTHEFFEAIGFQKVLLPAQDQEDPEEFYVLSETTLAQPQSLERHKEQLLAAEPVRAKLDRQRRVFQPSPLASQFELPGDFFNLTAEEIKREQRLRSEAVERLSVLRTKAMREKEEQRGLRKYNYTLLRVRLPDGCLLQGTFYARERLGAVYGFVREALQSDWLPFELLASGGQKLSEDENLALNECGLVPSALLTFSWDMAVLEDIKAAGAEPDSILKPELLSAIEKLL

T4 sequence (P55072 whole entry, the tested form may be a part): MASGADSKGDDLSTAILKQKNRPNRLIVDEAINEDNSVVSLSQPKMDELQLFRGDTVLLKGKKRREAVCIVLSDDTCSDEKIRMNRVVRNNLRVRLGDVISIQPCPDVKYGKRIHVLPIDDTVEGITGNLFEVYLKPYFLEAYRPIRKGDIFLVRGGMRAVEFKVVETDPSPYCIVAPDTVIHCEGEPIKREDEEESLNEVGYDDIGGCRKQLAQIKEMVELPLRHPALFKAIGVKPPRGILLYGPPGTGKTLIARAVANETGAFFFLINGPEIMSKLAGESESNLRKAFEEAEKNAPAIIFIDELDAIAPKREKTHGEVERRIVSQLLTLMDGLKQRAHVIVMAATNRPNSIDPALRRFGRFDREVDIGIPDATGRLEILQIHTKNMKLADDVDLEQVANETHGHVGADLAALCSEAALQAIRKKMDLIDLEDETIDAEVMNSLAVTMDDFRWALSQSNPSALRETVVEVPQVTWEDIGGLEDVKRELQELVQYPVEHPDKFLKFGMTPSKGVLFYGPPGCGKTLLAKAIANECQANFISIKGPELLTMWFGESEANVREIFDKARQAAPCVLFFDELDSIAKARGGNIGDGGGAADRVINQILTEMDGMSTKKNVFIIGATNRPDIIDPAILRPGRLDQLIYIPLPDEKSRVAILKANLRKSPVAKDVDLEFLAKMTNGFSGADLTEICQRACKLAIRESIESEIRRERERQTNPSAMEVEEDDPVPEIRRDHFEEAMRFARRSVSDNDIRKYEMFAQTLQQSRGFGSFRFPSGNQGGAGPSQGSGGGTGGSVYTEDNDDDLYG
T6 sequence (P55072 1-199): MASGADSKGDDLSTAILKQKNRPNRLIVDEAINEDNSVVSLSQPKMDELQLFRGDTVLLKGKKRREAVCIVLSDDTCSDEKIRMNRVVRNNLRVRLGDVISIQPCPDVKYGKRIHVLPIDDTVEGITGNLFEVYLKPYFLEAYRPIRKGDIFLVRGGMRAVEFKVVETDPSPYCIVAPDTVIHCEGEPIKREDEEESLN

- binding result [1]: binds
Binder: {5,6‑FAM}-TEDNDDDLYG (p97/VCP, C-terminal residues 797-806)

- binding result [2]: binds
B1: UBXD1 E368A/D373A (full length, recombinant) (natural protein, human, UniProt Q9BZV1 1-441, looked up)
chain: MKKFFQEFKADIKFKSAGPGQKLKESVGEKAHKEKPNQPAPRPPRQGPTNEAQMAAAAALARLEQKQSRAWGPTSQDTIRNQVRKELQAEATVSGSPEAPGTNVVSEPREEGSAHLAVPGVYFTCPLTGATLRKDQRDACIKEAILLHFSTDPVAASIMKIYTFNKDQDRVKLGVDTIAKYLDNIHLHPEEEKYRKIKLQNKVFQERINCLEGTHEFFEAIGFQKVLLPAQDQEDPEEFYVLSETTLAQPQSLERHKEQLLAAEPVRAKLDRQRRVFQPSPLASQFELPGDFFNLTAEEIKREQRLRSEAVERLSVLRTKAMREKEEQRGLRKYNYTLLRVRLPDGCLLQGTFYARERLGAVYGFVRAALQSAWLPFELLASGGQKLSEDENLALNECGLVPSALLTFSWDMAVLEDIKAAGAEPDSILKPELLSAIEKLL
notes: UBXD1 (UBXN6), human, mutant in the context of recombinant UBXD1-fl

- binding result (UBXD1-PUB (150-264)): binds
B2: HR23b-UBL (1-78) (domain or fragment)
chain: not shown
notes: also called HR23b-UBL wt; 15N-HR23b-UBL; source: unlabelled or 15N-labelled; not shown: GST, N-terminal, cleaved

- Kd (p97 wild type (1-806)): 5.5 ± 0.2 µM
B3: UBXD1-ΔUBX-C (1-332), Atto594-labelled (domain or fragment, human, UniProt Q9BZV1 1-332, looked up)
chain: MKKFFQEFKADIKFKSAGPGQKLKESVGEKAHKEKPNQPAPRPPRQGPTNEAQMAAAAALARLEQKQSRAWGPTSQDTIRNQVRKELQAEATVSGSPEAPGTNVVSEPREEGSAHLAVPGVYFTCPLTGATLRKDQRDACIKEAILLHFSTDPVAASIMKIYTFNKDQDRVKLGVDTIAKYLDNIHLHPEEEKYRKIKLQNKVFQERINCLEGTHEFFEAIGFQKVLLPAQDQEDPEEFYVLSETTLAQPQSLERHKEQLLAAEPVRAKLDRQRRVFQPSPLASQFELPGDFFNLTAEEIKREQRLRSEAVERLSVLRTKAMREKEEQRGLR
modifications: Atto594 (NHS ester labelling)
notes: the methods say that the UBXD1 proteins were labelled with Atto594-NHS ester for anisotropy; not shown: GST, N-terminal, cleaved

- Kd (UBXD1-PUB (150–264)): 1500 ± 900 µM
B4: HR23b-UBL (domain or fragment)
chain: not shown
notes: HR23b (RAD23B), UBL domain; The cited NMR structure of the HR23b-UBL domain is PDB 1P1A; 15N-labelled for the reverse titration; also called HR23b-UBL wt; UBL domain of HR23b; not shown: GST, N-terminal, cleaved

- Kd (p97-N (1–199)): 22 ± 1 µM
B5: UBXD1-N (1–133) (domain or fragment, human, UniProt Q9BZV1 1-133, looked up)
chain: MKKFFQEFKADIKFKSAGPGQKLKESVGEKAHKEKPNQPAPRPPRQGPTNEAQMAAAAALARLEQKQSRAWGPTSQDTIRNQVRKELQAEATVSGSPEAPGTNVVSEPREEGSAHLAVPGVYFTCPLTGATLR
modifications: Atto594 (NHS ester; the UBXD1 proteins were labeled for anisotropy)
notes: UBXD1 (UBXN6), human, N-terminus, residues 1-133; The construct is not described on its own in the methods; limits from the results; also called UBXD1 N-terminus; not shown: GST, N-terminal, cleaved

- binding result (UBXD1-wt (1-441)): binds
Binder: {5,6‑FAM}-TEDNDDDLYG (p97/VCP C-terminal residues 797-806)
